Results taken from patent US5756327A, “Recombinant mycobacterial isoleucyl-tRNA synthetase genes, tester strains and assays” (priority 1995, dated 1998).

What was measured:
[1] = test system: CC[C@H](C)[C@H](N)C(=O)O; test: cells, lysate or membranes named; details: pH 7.5
[2] = biological target: TB IleRS (M. tuberculosis isoleucyl-tRNA synthetase) (Mycobacterium tuberculosis, UniProt P9WFV3); test: tRNA charging (aminoacylation) assay, sensitivity of TB IleRS to PMA; format: biochemical; details: concentrations of up to 250 μM
Procedure: The sensitivity of the TB IleRS for the drug pseudomonic acid A (PMA; a specific inhibitor of some prokaryotic IleRS enzymes) was tested.
The conditions of the charging assay were as follows: At time zero, 10 μl of crude extract or purified protein was added to a reaction mixture containing 50 mM HEPES, pH 7.5, 8 mM MgCl2, 20 μM tritiated isoleucine (New England Nuclear) with a specific activity of 2200 cpm/pmol, 10 mM KF, 4 mM ATP, and 0.1 mM total tRNA from either E. coli (Sigma) or yeast (S. cerevisiae, Boehringer-Mannheim Biochemicals). At various times, 10-20 μl of the reaction were withdrawn, spotted onto Whatman 3 MM cellolose filter diskettes, and the reaction was quenched by placing the filters in 5% ice cold TCA (trichloroacetic acid). Diskettes were washed three times with ice cold 5% TCA, once with 5% ice cold ethanol, once with ether, and air dried. The amount of [^3 H]-isoleucine incorporated into tRNA bound to the filter was determined by scintillation counting in 5 mls Betafluor (Packard 1600 TR scintillation counter).

Chain of TB IleRS (M. tuberculosis isoleucyl-tRNA synthetase) (P9WFV3 2-1032): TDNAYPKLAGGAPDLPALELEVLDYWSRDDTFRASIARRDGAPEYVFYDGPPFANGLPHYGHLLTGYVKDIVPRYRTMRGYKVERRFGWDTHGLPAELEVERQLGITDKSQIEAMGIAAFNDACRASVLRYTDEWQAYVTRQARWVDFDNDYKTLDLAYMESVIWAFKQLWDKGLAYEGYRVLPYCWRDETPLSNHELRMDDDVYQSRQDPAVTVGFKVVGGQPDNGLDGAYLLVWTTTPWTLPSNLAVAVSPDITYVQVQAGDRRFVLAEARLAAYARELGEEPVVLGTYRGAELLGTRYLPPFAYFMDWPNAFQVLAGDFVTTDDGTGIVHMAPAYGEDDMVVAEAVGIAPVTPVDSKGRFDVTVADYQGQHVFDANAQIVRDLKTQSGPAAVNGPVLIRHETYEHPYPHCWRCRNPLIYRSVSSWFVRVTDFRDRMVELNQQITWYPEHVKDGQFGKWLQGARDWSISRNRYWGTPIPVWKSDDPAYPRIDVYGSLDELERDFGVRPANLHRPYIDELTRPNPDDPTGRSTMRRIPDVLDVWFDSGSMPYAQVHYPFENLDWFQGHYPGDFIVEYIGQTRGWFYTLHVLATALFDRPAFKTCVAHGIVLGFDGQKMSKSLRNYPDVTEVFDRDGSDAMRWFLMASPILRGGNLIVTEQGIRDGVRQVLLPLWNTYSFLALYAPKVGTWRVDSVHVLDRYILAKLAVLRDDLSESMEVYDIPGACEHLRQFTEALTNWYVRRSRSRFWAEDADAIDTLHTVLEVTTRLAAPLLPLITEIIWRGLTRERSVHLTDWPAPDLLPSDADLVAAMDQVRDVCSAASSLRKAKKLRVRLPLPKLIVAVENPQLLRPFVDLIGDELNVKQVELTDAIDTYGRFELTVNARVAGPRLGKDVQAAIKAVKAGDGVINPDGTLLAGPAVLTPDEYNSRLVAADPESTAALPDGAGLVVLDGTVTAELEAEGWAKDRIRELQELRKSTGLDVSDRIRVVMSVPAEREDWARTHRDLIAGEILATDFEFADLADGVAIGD

| Compound | Km [1] [µM] | inhibition of the charging activity of the enzyme [2] |
| --- | --- | --- |
| purified TB GST-IleRS fusion protein with or without thrombin cleavage (Mycobacterium tuberculosis H37Rv) | 1.1 ± 0.2 |  |
| C/C(=C\C(=O)OCCCCCCCCC(=O)O)C[C@@H]1OC[C@H](C[C@@H]2O[C@H]2[C@@H](C)[C@H](C)O)[C@@H](O)[C@H]1O [PMA, pseudomonic acid A] |  | did not inhibit |
